Measured values reported in patent US20150111231A1 (SHIONOGI, published 2015).
Groups on a side chain read outwards from the residue. Primed or numbered codes have the meaning given here. No end group written: not given here. *: point of attachment. Biotin = O=C1N[C@H]2[C@H](CS[C@H]2CCCCC(=O)*)N1; PEG2′ = not defined here

B1: biotinylated N-terminal cysteine-containing neoepitope peptide (peptide)
peptide: C([Maleimide-PEG2′-Biotin])TEEISEVKM
notes: also called biotinylated peptide; biotynylated peptide
B2: Immunogen peptide (peptide)
peptide: DSVPANTENEVEPVDARPAADRGLTTRPGSGLTNC
notes: also called C-terminal cysteine-containing internal structural peptide; Immunogen 2 peptide
B3: Fragment 1 (peptide)
peptide: DSVPANTENEVE
notes: partial peptide of the 5H10 immunogen; also called fragment peptide 1
B4: Fragment 2 (peptide)
peptide: NEVEPVDARPAA
notes: partial peptide of the 5H10 immunogen; also called fragment peptide 2
B5: Fragment 3 (peptide)
peptide: RPAADRGLTTRP
notes: partial peptide of the 5H10 immunogen; also called fragment peptide 3
B6: anti-neoepitope antibody 4G4 (antibody, IgG2a, V domains shown)
VH: EMKLVESGGGLVEPGGSLKLSCAASGFTFSNYAMSWVRQTPDKRLEWVASIGRGGSTFYPDSVKGRFTISRDRVRNILYLQMNSLRSEDTAIYYCRVIYSQSISFDYWGQGTTLTVSS
VL: not shown
notes: It was biotinylated when used as capture antibody in the sandwich ELISA; also called anti-sAPP β monoclonal antibody (4G4)

Legend:
[1] = biological target: B6; test: competitive ELISA: 4G4 captured on anti-mouse IgG plate, unlabelled immunogen peptide (SEQ ID No. 2) varied against the biotinylated neoepitope peptide with streptavidin-HRP
Experimental: 10 μl of the antibody solution containing 4G4 and 10 μl of the immunogen peptide (SEQ ID No.:2) or the long peptide ([…] SEQ ID No. 3 SIGMA) or human sAPPβ (MESO SCALE DISCOVERY) or human sAPPα (MESO SCALE DISCOVERY) and 10 μl of 0.04 ng the biotynylated peptide and 2 ng streptavidin-HRP in buffer A were placed into the above anti-mouse IgG-immobilized plates and incubated overnight at 4° C. The plates were washed three times and 25 μl of TMB substrate solution (DAKO) was added and incubated for 30 min. The reaction was finally stopped by addition of 25 μl of 0.05NH2SO4, and optical absorbance was measured at wavelength of 450 nm (FIG. 3).

[2] = biological target: T1, anti-internal structure antibody 5H10; test: competitive ELISA of 5H10, unlabelled peptide varied against the biotinylated internal structural peptide
T1 construct: also called internal antibody 5H10; internal structural antibody
Experimental: Reactivity of the antibody, 5H10 to the four fragment peptides 1˜4 (SEQ ID No.: 8, 9, 10, 11) was evaluated by competitive ELISA in the same method as Example 1.

[3] = biological target: B1; test: screening ELISA: hybridoma supernatant on anti-mouse IgG plate, biotinylated peptide and streptavidin-HRP

T1 sequence (VH, as listed by the source, chain 1 of 2): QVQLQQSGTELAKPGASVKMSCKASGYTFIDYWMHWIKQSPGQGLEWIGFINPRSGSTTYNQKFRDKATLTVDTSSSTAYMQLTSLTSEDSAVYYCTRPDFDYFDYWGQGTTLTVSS
T1 sequence (VL, as listed by the source, chain 2 of 2): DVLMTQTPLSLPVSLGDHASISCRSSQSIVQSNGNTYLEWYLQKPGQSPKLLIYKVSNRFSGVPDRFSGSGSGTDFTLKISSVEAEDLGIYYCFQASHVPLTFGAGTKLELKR

Binder	binding result [2]	other results
B1		binding result [1]: binds
B2	binds	
B3	no binding (tested: about 150 nM)	
B4	no binding (tested: about 150 nM)	
B5	no binding (tested: about 150 nM)	
B6		binding result [3]: binds
